Article PMC5099943, “Recombinant L-asparaginase 1 from Saccharomyces cerevisiae: an allosteric enzyme with antineoplastic activity” (Scientific Reports, 2016)

Tests used:
purified protein [1] = substrate: NC(=O)C[C@H](N)C(=O)O; assay: purified protein; conditions: 50 mM Tris-HCl pH 8.0, 37 °C, nH 1.1 ± 0.1
purified protein [2] = substrate: NC(=O)C[C@H](N)C(=O)O; assay: purified protein; type: biochemical, Saccharomyces cerevisiae; conditions: 50 mM Tris-HCl pH 8.0, 37 °C, no L-glutamine, sigmoidal, nH 2.2 ± 0.3

B1: EcASNase2 (L-ASNase type II from Escherichia coli, commercial) (Escherichia coli K-12) (protein)
chain: LPNITILATGGTIAGGGDSATKSNYTVGKVGVENLVNAVPQLKDIANVKGEQVVNIGSQDMNDNVWLTLAKKINTDCDKTDGFVITHGTDTMEETAYFLDLTVKCDKPVVMVGAMRPSTSMSADGPFNLYNAVVTAADKASANRGVLVVMNDTVLDGRDVTKTNTTDVATFKSVNYGPLGYIHNGKIDYQRTPARKHTSDTPFDVSKLNELPKVGIVYNYANASDLPAKALVDAGYDGIVSAGVGNGNLYKSVFDTLATAAKTGTAVVRSSRVPTGATTQDAEVDDAKYGFVASGTLNPQKARVLLQLALTQTKDPQQIQQIFNQY
In the case of B1, the Km (purified protein [1]) is reported as 23 ± 5 µM, the Vmax (purified protein [1]) is reported as 0.032 µmol/min and the kcat (purified protein [1]) is reported as 134 s⁻¹. For the same protein, the kcat/Km (purified protein [1]) was 5.8e+06 M⁻¹ s⁻¹.

B2: ScASNase1 (L-asparaginase 1) (Saccharomyces cerevisiae S288C) (protein)
chain: LPRIKILGTGGTIASKAIDSSQTAGYHVDLTIQDLLDAIPDISKVCDIEYEQLCNVDSKDINEDILYKIYKGVSESLQAFDGIVITHGTDTLSETAFFIESTIDAGDVPIVFVGSMRPSTSVSADGPMNLYQAICIASNPKSRGRGVLVSLNDQISSGYYITKTNANSLDSFNVRQGYLGNFVNNEIHYYYPPVKPQGCHKFKLRVDGKHFKLPEVCILYAHQAFPPAIVNLVADKYDGIVLATMGAGSLPEEVNETCMKLSLPIVYSKRSMDGMVPIANVPKKGSKEDNLIASGYLSPEKSRILLQLCLAGNYTLEEIKHVFTGVYGG
B2 showed a K0.5 (purified protein [2]) of 75 ± 27 µM, a Vmax (purified protein [2]) of 0.042 µmol/min and a kcat (purified protein [2]) of 217 ± 14 s⁻¹.
